In patent US20020090680A1:

Target: IL-9R/h16445 cytoplasmic-domain receptor chimera (human)
Assay: cell-based or functional assay

Sequence of IL-9R/h16445 cytoplasmic-domain receptor chimera (human) (Q9HBE5 254-538, change not shown): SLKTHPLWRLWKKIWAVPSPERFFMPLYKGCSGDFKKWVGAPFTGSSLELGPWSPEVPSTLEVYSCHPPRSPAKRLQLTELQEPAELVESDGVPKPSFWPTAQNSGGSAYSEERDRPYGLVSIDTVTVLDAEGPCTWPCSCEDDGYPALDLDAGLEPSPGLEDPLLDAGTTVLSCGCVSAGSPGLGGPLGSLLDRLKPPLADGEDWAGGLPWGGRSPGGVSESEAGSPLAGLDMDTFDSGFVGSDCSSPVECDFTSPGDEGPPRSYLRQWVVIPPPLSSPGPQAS

With IL-9 (ligand) the CAT expression (HRRE-CAT reporter, HepG2 cells) was > 30 fold.
